Numbering of substitutions follows the chain as printed. Blank lines part the entries; values can stand above or below the binder they belong to.
Molecular target: human CD122/CD132 on cells of human PBMCs (human) (UniProt P14784)
Experiment: cell-based or functional assay

Chain of human CD122/CD132 on cells of human PBMCs (human) (P14784 27-551, chain 1 of 2): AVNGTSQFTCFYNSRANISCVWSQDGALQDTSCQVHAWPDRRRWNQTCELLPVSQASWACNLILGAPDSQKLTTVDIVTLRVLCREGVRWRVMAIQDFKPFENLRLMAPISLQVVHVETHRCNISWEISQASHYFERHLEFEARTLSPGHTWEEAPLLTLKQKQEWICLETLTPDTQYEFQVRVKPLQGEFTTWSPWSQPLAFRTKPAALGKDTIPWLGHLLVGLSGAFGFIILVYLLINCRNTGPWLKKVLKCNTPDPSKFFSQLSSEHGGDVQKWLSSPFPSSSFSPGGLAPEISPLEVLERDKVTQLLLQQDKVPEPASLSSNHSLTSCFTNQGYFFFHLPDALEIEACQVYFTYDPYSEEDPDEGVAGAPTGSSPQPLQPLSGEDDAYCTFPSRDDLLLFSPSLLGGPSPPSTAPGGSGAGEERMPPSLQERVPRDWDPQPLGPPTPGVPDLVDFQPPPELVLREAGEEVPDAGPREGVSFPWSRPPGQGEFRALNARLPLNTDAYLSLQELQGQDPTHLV
Chain of human CD122/CD132 on cells of human PBMCs (human) (P31785 23-369, chain 2 of 2, further chain): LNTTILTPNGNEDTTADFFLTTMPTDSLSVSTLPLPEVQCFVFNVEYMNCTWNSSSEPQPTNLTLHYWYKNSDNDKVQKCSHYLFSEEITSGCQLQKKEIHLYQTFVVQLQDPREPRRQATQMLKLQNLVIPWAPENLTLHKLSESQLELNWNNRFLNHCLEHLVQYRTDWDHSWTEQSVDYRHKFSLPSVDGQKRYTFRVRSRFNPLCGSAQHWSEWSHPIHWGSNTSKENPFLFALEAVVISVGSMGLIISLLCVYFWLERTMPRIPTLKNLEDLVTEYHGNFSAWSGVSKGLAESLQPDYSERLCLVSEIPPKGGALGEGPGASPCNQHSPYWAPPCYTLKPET

pSTAT5 EC50 on human CD8+cm T cells (hPBMC): 3.67 nM
pSTAT5 EC50 on human NK cells (hPBMC): 0.946 nM
B1: Isotype control--IL15 M1 (protein, part only; not given: Isotype control antibody chains and linker, part only)
heavy, part: AWVNVISDLKKIEDLIQSMHIDATLYTESNVHPSCKVTAMKCFLLGLQRISLESGDASIHDTVENLIILANNSLSSNGNVTESGCKECEELEEKNIKEFLQSFVHIVQMFINTS

pSTAT5 EC50 on human CD8+cm T cells (hPBMC): 37.6 nM
pSTAT5 EC50 on human NK cells (hPBMC): 11.2 nM
B2: Isotype control--IL15 M2 (protein, part only; not given: Isotype control antibody chains and linker, part only)
heavy, part: B1 heavy, part with A1G, E64Q
